2 substances from patent publication US20150290319A1 can be followed below.

The target of assay [1] is Clostridium difficile toxin B (whole toxin B) (Clostridium difficile).
Assay [2] has the same target. Briefly: cell-based or functional assay.

For “Clostridium difficile toxin B (whole toxin B)”, the IC50 (read off the curve) with MDX1388 was found to be 0.05 µg/mL.

One may read the Kd as the concentration at which binding is half-saturated. A high value points to weaker binding. The term koff denotes the rate constant with which the complex falls apart. Broadly, the kon is the rate constant with which the complex forms. A low value points to slower complex formation. In assay [1], MDX1388 (antibody) registered a Kd of 3.84 nM, a koff of 0.000139 s⁻¹ and a kon of 36200 M⁻¹ s⁻¹. The substance further had a Mean EC50, neutralization of TcdB on HT-29 cells (xCELLigence) in assay [2] of 125 µg/mL.
